As usually defined, the EC50 is the concentration that produces a half-maximal response. Low readings indicate greater potency, high ones weaker potency.

The results in this text go back to patent publication US20240201167A1 (ALBERT EINSTEIN COLLEGE OF MEDICINE, published 2024).

Where a chain is given by its changes, count along the chain named.

The chains are these.
B1: mouse B7-1 expressed on cells (ligand)
chain: VDEQLSKSVKDKVLLPCRYNSPHEDESEDRIYWQKHDKVVLSVIAGKLKVWPEYKNRTLYDNTTYSLIILGLVLSDRGTYSCVVQKKERGTYEVKHLALVKLSIKADFSTPNITESGNPSADTKRITCFASGGFPKPRFSWLENGRELPGINTTISQDPESELYTISSQLDFNTTRNHTIKCLIKYGDAHVSEDFTWEKPPEDPPDSKNTLVLFGAGFGAVITVVVIVVIIKCFCKHRSCFRRNEASRETNNSLTFGPEEALAEQTVFL
notes: Cytosolic mCherry tag; also called mouse B7-1-mCherry; rodent B7-1
B2: HVEM expressed on cells (receptor, human, UniProt Q92956 39-283, looked up)
chain: LPSCKEDEYPVGSECCPKCSPGYRVKEACGELTGTVCEPCPPGTYIAHLNGLSKCLQCQMCDPAMGLRASRNCSRTENAVCGCSPGHFCIVQDGDHCAACRAYATSSPGQRVQKGGTESQDTLCQNCPPGTFSPNGTLEECQHQTKCSWLVTKAGAGTSSSHWVWWFLSGSLVIVIVCSTVGLIICVKRRKPRGDVVKVIVSVQRKRQEAEGEATVIEALQAPPDVTTVAVEETIPSFTGRSPNH
notes: whole, on cells
B3: human p75 neurotrophin receptor, full length, expressed on HEK 293 cells (receptor)
chain: KEACPTGLYTHSGECCKACNLGEGVAQPCGANQTVCEPCLDSVTFSDVVSATEPCKPCTECVGLQSMSAPCVEADDAVCRCAYGYYQDETTGRCEACRVCEAGSGLVFSCQDKQNTVCEECPDGTYSDEANHVDPCLPCTVCEDTERQLRECTRWADAECEEIPGRWITRSTPPEGSDSTAPSTQEPEAPPEQDLIASTVAGVVTTVMGSSQPVVTRGTTDNLIPVYCSILAAVVVGLVAYIAFKRWNSCKQNKQGANSRPVNQTPPPEGEKLHSDSGISVDSQSLHDQQPHTQTASGQALKGDGGLYSSLPPAKREEVEKLLNGSAGDTWRHLAGELGYQPEHIDSFTHEACPVRALLASWATQDSATLDALLAALRRIQRADLVESLCSESTATSPV
notes: Full-length human p75 with a cytosolic fluorescent tag (GFP); also called p75NTR; NGFR
B4: p75NTR-mIgG2a (Fc fusion)
chain: KEACPTGLYTHSGECCKACNLGEGVAQPCGANQTVCEPCLDSVTFSDVVSATEPCKPCTECVGLQSMSAPCVEADDAVCRCAYGYYQDETTGRCEACRVCEAGSGLVFSCQDKQNTVCEECPDGTYSDEANHVDPCLPCTVCEDTERQLRECTRWADAECEEIPGRWITRSTPPEGSDSTAPSTQEPEAPPEQDLIASTVAGVVTTVMGSSQPVVTRGTTDN
notes: Full-length ectodomain; also called p75-mIgG2A; recombinant p75 mIgG2a; not shown: C-terminal mIgG2a-His10 Fc domain

Assay [1] has as its target T1, mouse p75NTR (mouse, UniProt Q9Z0W1 32-427).
T1 construct: whole, on cells; also called mouse p75NTR-GFP; murine p75
T1 sequence (looked up): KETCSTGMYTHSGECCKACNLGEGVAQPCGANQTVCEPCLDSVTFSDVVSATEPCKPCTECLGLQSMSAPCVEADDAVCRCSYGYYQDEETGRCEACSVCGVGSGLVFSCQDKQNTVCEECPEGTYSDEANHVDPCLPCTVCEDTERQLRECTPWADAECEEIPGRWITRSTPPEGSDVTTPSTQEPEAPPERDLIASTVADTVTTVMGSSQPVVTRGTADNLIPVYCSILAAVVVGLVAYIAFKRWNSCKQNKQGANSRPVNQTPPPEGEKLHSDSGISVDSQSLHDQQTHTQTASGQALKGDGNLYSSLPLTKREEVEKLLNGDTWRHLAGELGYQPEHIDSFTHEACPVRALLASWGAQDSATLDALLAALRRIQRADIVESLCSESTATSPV
As to the kind of experiment: cell-cell binding, flow cytometry. In general terms: A flow cytometer gives signals particle by particle.

The target in assay [2] is T2, rat p75NTR expressed on cells (rat, UniProt P07174 30-425).
T2 construct: whole, on cells; also called rat p75NTR-GFP; rodent p75NTR
T2 sequence (looked up): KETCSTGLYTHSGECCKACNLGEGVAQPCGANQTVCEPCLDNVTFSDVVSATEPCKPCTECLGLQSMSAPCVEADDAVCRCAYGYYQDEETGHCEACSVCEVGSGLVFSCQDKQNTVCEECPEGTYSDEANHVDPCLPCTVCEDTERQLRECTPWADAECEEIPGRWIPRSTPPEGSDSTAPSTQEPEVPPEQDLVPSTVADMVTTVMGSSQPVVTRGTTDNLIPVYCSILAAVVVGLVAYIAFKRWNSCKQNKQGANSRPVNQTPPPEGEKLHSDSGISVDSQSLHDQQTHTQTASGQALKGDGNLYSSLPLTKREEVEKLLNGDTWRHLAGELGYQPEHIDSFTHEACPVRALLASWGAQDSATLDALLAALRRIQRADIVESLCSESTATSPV
As to the kind of experiment: cell-cell binding, flow cytometry.

The target in assay [3] is B3. As to the kind of experiment: cell-cell binding, flow cytometry.
The target in assay [4] is T3, human B7-1 (CD80), full length, expressed on HEK 293 cells (Homo sapiens, UniProt P33681 35-280).
T3 construct: also called hB7-1; B7-1-mCherry
T3 sequence: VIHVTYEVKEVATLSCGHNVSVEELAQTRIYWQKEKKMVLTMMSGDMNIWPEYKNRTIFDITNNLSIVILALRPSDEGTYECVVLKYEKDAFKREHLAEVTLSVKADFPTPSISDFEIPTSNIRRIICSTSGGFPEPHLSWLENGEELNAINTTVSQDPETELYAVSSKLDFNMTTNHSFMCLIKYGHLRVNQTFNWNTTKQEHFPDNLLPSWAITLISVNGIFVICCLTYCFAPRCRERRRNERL
Nature of the assay: cell-cell screen, flow cytometry. How it is done: (§1) As illustrated, cells were transfected with expression cassettes expressing labeled receptors or labeled ligands, receptor-expressing cells were mixed with ligand-expressing cells and cell-to-cell binding was monitored by detecting the labels associated with the receptor and the ligand. […] Binding was detected using an anti-mIgG2A ab and flow cytometry. The binding curves were fit and the Bmax, EC50, and hill coefficient were calculated using the equation Y=Bmax*Xh/(Kdh+Xh).

Assay [5] addresses T4, protein tyrosine phosphatase receptor type F expressed on cells (human, UniProt P10586 30-1907).
T4 construct: whole, on cells; also called PTPRF; PTPRF mCherry
As to the kind of experiment: cell-cell screen, flow cytometry. How it is done: as §1

For assay [6], the target named is T3, human B7-1 (CD80), full length, …. Nature of the assay: cell-cell binding, flow cytometry; percent of the wild-type pair.
Assay [7] concerns the target T5, human B7-1 K139D on cells (Homo sapiens, UniProt P33681 35-280).
T5 construct: mCherry-tagged point mutant; also called LYS139ASP; LYS139 ASP
T5 chain: T3 sequence with K105D
The description is as above.

For assay [8], the target named is T6, human B7-1 R63D on cells (Homo sapiens, UniProt P33681 35-280).
T6 construct: mCherry-tagged point mutant; also called ARG63 ASP
T6 chain: T3 sequence with R29D
The description is as above.

Assay [9] deals with T7, human B7-1 N82E on cells (Homo sapiens, UniProt P33681 35-280).
T7 construct: C-terminally fused to mCherry; also called ASN82 GLU
T7 chain: T3 sequence with N48E
The description is as above.

Assay [10] addresses T8, human B7-1 K120D on cells (Homo sapiens, UniProt P33681 35-280).
T8 construct: mCherry-tagged point mutant; also called LYS120 ASP
T8 chain: T3 sequence with K86D
The description is as above.

The target of assay [11] is T9, human B7-1 K127D on cells (Homo sapiens, UniProt P33681 35-280).
T9 construct: mCherry-tagged point mutant; also called LYS127 ASP
T9 chain: T3 sequence with K93D
The assay is described as above.

Assay [12] has as its target T10, B7-1-hIgG1-biotin (human, UniProt P33681 35-233, biotin on the AVI tag (BirA)).
T10 construct: Loaded on streptavidin beads; the paragraph gives residues only; also called B7-1-Fc-biotin; hB7-1 (residues 35-233) hIgG1-His10-AVI; not shown: C-terminal 10xHis and AVI tagged hIgG1 Fc domain
T10 chain: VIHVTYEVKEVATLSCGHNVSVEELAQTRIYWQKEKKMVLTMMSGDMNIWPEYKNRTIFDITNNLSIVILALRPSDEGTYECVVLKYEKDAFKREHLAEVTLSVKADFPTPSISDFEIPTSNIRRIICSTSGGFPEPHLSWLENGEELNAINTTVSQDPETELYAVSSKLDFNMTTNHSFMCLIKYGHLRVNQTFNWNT
As to the kind of experiment: Fc fusions titrated on streptavidin beads coated with B7-1-hIgG1-biotin, flow cytometry. An excerpt:
(§2) Binding was detected by flow cytometry on a SONY Spectral Analyzer (SA 3800). Binding curves were fit using the equation Y=Bmax*Xh/(Kdh+Xh).

In assay [13] the target is T10, B7-1-hIgG1-biotin. Nature of the assay: p75-mIgG2A titrated on streptavidin beads coated with B7-1-hIgG1-biotin; anti-mIgG2A, flow cytometry.
Source text: as §2

B1: the binding result in assay [1], in assay [2] and in assay [3] was “no binding” throughout.

With B2, in [4], the binding result is reported as “no binding”.

As to B3, the binding result in assay [5] is listed as “binds”. Moreover, the percent binding in [6] was determined as 100%; in assay [7] it was 21%; in [8], 30%; in assay [9], 25%; in assay [10], 20%; in assay [11], 26%.

In the case of B4, the “fold higher EC50 than B7-1:CTLA-4” value in assay [12] is roughly 30 fold. In assay [13], this molecule showed an EC50 of 16 nM.
